The text below walks through data of publication PMC6436931, “Activation of the Endonuclease that Defines mRNA 3′ Ends Requires Incorporation into an 8-Subunit Core Cleavage and Polyadenylation Factor Complex” (Molecular Cell, 2019).

For one data set, the target named is T1, Ysh1;Mpe1 (Saccharomyces cerevisiae;Saccharomyces …, UniProt Q06224;P35728 1-779;1-441, |).
T1 sequence 1: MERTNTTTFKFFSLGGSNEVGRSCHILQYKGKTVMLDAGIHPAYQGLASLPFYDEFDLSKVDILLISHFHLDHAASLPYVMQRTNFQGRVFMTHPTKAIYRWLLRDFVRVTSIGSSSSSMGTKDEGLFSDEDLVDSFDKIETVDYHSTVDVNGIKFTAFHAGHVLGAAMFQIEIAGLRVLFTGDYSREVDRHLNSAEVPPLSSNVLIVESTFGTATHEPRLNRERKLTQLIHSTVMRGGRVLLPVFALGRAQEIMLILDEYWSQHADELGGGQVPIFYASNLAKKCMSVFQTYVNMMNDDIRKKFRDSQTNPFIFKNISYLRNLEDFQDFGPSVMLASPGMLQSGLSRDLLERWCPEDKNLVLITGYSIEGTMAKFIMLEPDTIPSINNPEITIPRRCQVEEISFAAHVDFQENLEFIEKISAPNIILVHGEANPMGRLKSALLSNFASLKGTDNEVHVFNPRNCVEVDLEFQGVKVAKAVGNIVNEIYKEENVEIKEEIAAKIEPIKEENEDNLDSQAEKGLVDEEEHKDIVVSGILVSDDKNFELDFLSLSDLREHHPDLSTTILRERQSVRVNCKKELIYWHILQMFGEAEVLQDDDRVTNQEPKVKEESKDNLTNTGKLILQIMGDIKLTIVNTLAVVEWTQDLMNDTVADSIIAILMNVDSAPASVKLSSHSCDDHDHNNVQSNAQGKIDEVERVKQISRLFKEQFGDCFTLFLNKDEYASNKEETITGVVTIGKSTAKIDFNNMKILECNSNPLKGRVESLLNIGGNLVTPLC
T1 sequence 2: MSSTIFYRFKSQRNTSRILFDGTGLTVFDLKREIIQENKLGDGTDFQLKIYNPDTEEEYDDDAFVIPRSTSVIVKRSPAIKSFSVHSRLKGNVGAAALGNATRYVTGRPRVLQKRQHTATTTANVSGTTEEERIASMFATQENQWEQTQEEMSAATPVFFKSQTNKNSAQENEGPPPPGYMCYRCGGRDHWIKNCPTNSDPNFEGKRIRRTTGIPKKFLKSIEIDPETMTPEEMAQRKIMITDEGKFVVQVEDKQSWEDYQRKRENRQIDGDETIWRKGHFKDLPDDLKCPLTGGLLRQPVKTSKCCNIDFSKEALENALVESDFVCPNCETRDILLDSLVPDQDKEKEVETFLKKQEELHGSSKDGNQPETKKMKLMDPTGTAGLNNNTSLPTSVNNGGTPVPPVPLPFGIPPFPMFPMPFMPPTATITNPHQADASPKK
Briefly: EMSA; EMSA: 50 nM RNA, 0.25-4.0 uM protein, protein diluted in 10 mM HEPES pH 7.9, 150 mM NaCl, 0.5 mM Mg(OAc)2, plus 1x loading dye (orange G, glycerol, EDTA); 30 min on ice; native 6% acrylamide/TBE PAGE. Particulars: protein: recombinant;recombinant; tags: ;3C-SII (C-terminal) in Ysh1-Mpe1 complexes; untagged in CPFcore; copies: 1;1; label: 5'-FAM. Background: Mobility shift assays separate free from complexed probe on a gel.

Another data set deals with Cft1;Pfs2;Yth1;Fip1;Pap1 (Saccharomyces cerevisiae;Saccharomyces …, UniProt Q06632;P42841;Q06102;P45976;P29468 1-1357;1-465;1-208;1-327;1-568, ||||). The experiment in a line: EMSA; CPFpol; EMSA: 50 nM RNA, 0.25-4.0 uM protein, protein diluted in 10 mM HEPES pH 7.9, 150 mM NaCl, 0.5 mM Mg(OAc)2, plus 1x loading dye (orange G, glycerol, EDTA); 30 min on ice; native 6% acrylamide/TBE PAGE. The settings on record: protein: recombinant;recombinant;recombinant;recombinant;recombinant; tags: ;3C-SII;3C-8H; untagged in CPFpol+Cft2;;SII (Pap1-SII) when alone; untagged in CPFpol and CPFcore; copies: 1;2;1;1;1; label: 5'-FAM.

In the case of UUUUUUUUUUUUUUU (ssRNA) [U15], the binding result with Ysh1;Mpe1 and with Cft1;Pfs2;Yth1;Fip1;Pap1 was “no binding” in each case.

As for AAGAACGUUAUUUAUAUUUCAAAUUUUUCUUUUUU (ssRNA) [CYC1d EMSA probe], in the data set with Cft1;Pfs2;Yth1;Fip1;Pap1, the binding result is “binds”.

On to GGGGGGGGGGGGGGG (ssRNA) [G15], for which the binding result with Ysh1;Mpe1 and in the data set with Cft1;Pfs2;Yth1;Fip1;Pap1 was “binds” throughout.

Turning to CCCCCCCCCCCCCCC (ssRNA) [C15], the binding result in the data set with Ysh1;Mpe1 and with Cft1;Pfs2;Yth1;Fip1;Pap1 was “no binding” each time.

Take AAAAAAAAAAAAAAA (ssRNA) [A15]: the results for the binding result with Ysh1;Mpe1 and with Cft1;Pfs2;Yth1;Fip1;Pap1 were “no binding” and “binds”, respectively.
